Results published in US5512203A, “Cutinase cleaning compositions” (Genencor International, Inc., priority 1994, dated 1996).

How the values were obtained:
Type in all cases: biochemical
[1] = Effect of surfactants on hydrolase activity of cutinase; conditions: for Compatibility of surfactant with the cutinase: at the concentrations tested
Procedure: This example measures the effect of surfactants (detergents) on the hydrolytic activity of cutinase. Specifically, in this example, an aqueous solution was prepared so as to contain 120 nanomoles per liter of cutinase (isolated in a substantially pure form from P. mendocina, ATCC 53552, described in U.S. Ser. No. 932,959 filed Nov. 19, 1986 and incorporated herein by reference); and 0.1 moles/liter of Tris Tris(hydroxymethyl)aminomethane! buffer maintained at pH 8.0 and 25° C. In some cases, surfactant sodium dodecyl sulfate (SDS) and/or Triton X-100™ (octoxynol), available from Rohn & Haas, Philadelphia, Pa.! was then added in the amount specified in Table 4 below. In this example, the enzymatic activity of the cutinase was measured in these solutions using the amount of p-nitrophenol generated from the p-nitrophenylbutyrate substrate as measured by following the absorbance of p-nitrophenol at 410 nm. The enzymatic activity of the cutinase under the above conditions and in the absence of surfactant is arbitrarily assigned a value of 100 percent and enzymatic activity of the other test solutions are reported as a percentage of the standard.

[2] = Stability of cutinase against proteases, hydrolysis of p-nitrophenyl butyrate; conditions: for Cutinase activity after time: pH 10, 37° C.
Procedure: A. In part A of this example, the cutinase employed was that cutinase isolated in a substantially pure form from P. mendocina, ATCC 53552, described in U.S. Ser. No. 932,959 filed Nov. 19, 1986 and incorporated herein by reference and the protease employed was either Maxacal™ (a substilisin protease available from Gist-Brocade, N.V., Delft, Holland) or Esperase™ (a protease available from Novo Industries, Copenhagen, Denmark).
In this example aqueous test solutions containing 42 μg/ml of cutinase and either 35 μg/ml (Maxacal™) or 64 μg/ml (Esperase™) of protease were prepared. The solutions were buffered to pH 10 with 0.1M sodium phosphate. The solutions were incubated at 37° C. and the enzymatic activity of cutinase was periodically monitored by the hydrolysis of a model cutinase substrate p-nitrophenyl butyrate as measured by the absorbance change at 410 nm in 100 mM Tris buffer containing 0.1% Triton X-100 at pH 8. This value correlated against a standard, i.e., an aqueous solution containing cutinase but no protease. Diminishment in the enzymatic activity of the cutinase in the test solutions as compared to the standard is attributed to degradation of the cutinase by the protease.

[3] = Cutinase activity after 28 minutes with proteases, pH stat hydrolysis of trioctanoin; conditions: 2 μg/ml cutinase, pH 10, 37° C.
From the text: B. In part B of this example, the cutinase employed was the same as in part A above whereas the protease employed was either Alcalase™ (an alkaline protease available from Novo Industries, Copenhagen, Denmark), a mixture of Alcalase™ and Savinase™ (an alkaline protease available from Novo Industries, Copenhagen, Denmark), or a mixture of Savinase™ and Esperase™ (a protease available from Novo Industries, Copenhagen, Denmark).
In this example, aqueous test solutions containing cutinase contained 2 μg/ml of cutinase and the amount of protease specified in Table 2 below. The solutions were incubated at 37° C. for 28 minutes at pH 10 and the enzymatic activity of cutinase was periodically measured in a pH stat by the hydrolysis of trioctanoin in a 0.5 percent trioctanoin and a 0.05 percent sodium dodecyl sulfate emulsion. The measured value was correlated against a standard, i.e., an aqueous solution containing cutinase but no protease. Diminishment in the enzymatic activity of the cutinase in the test solutions as compared to the standard is attributed to degradation of the cutinase by the protease.

[4] = pH stability of bacterial cutinase, half-life at 50° C., hydrolysis of trioctanoin in polyvinyl alcohol emulsions
Procedure: In this example the half-life of the same cutinase used in Example 1 above was measured at 50° C. at various pHs. Specifically, cutinase was introduced into a 0.1M sodium phosphate buffer at the pH specified below and the activity was measured by hydrolysis of trioctanoin in polyvinyl alcohol emulsions. The time required for the activity to diminish to 1/2 of its initial value is taken as the half-life at that particular pH.

[5] = Stability of cutinase to oxidants (hydrogen peroxide); conditions: for Percent Cutinase Activity: pH 8.4, 25° C., two hours
Procedure: Specifically, in this example, an aqueous solution of 0.5 mg/ml of cutinase (isolated in a substantially pure form from P. mendocina, ATCC 53552, described in U.S. Ser. No. 932,959 filed Nov. 19, 1986 and incorporated herein by reference) containing 0.1M sodium phosphate buffer was incubated in varying amounts of hydrogen peroxide wherein the aqueous solution was maintained at pH 8.4 and at 25° C. for two hours. The enzymatic activity of the cutinase under the above conditions and in the absence of hydrogen peroxide is arbitrarily assigned a value of 100% and enzymatic activity of the other test solutions are reported as a percentage of the standard.

[6] = Removal of cutin-like stains from an insoluble support matrix, 3H-triolein hydrolysis; conditions: polyester swatches, 1 percent BSA
Procedure: The substrate was prepared by diluting 1 mCi of ^3 H-Triolein (0.5 mCi/ml, […]) into 17 ml isopropanol containing 421 mg of non-^3 H-Triolein. The final concentration was about 23-24 mg Triolein/ml. This was divided into 1 ml aliquots and stored.
Polyester cloth swatches cut into approximately 1/2 inch×1/2 inch squares were laid onto a glass plate. 3 μl of the above mixture was pipetted onto each swatch and allowed to air dry.
A solution comprising 1 percent fatty acid free bovine serum albumin (BSA), and 100 mM of a suitable buffer, preferably Tris (pH range 6 to 9) or glycine (pH range 8 to 11) was allowed to equilibrate to a fixed temperature (preferably 32° C.) in a shaking water bath. An aliquot of cutinase (0.25 to 1.5 μg/ml) was then added to 2.8 ml of the BSA solution, followed by the insertion of four of the cloth swatches, taking care to keep the swatches as separate as possible. The cutinase added was isolated from Fusarium solani pisi, Colletotrichum capsici, Pseudomonas mendocina or Pestalotia subcuticularia. The entire mixture was then allowed to shake in the constant temperature bath at 150 rpm for 15 minutes.
An aliquot of the liquor, preferably 20% of the entire volume was pipetted into a scintillation vial containing 10 ml of Ecolume™ scintillation fluid. After chilling, the scintillation vials were counted. […]

[7] = Cutinase activity against pH (FIG. 1)

CCCCCCCCCCCCOS(=O)(=O)[O-].[Na+] [sodium dodecyl sulfate, reference compound]
Compatibility of surfactant with the cutinase [1]: is not

octoxynol [Triton X-100, reference compound]
Compatibility of surfactant with the cutinase [1]: compatible with the cutinase

B1: cutinase: cutinase isolated in a substantially pure form from Pseudomonas mendocina ATCC 53552, amino acid sequence of SEQ ID NO:1 (protein)
chain: APLPDTPGAPFPAVANFDRSGPYTTSSQSEGPSCRIYRPRNLGQGGVRHPVILWGNGTGAGPSTYAGLLSHWASHGFVVAAAETSNAGTGREMLACLDYLVRENDTPYGTYSGKLNTGRVGTSGHSQGGGGSIMAGQDTRVRTTAPIQPYTLGLGHDSASQRRQQGPMFLMSGGGDTIAFPYLNAQPVYRRANVPVFWGERRYVSHFEPVGSGGAYRGPSTAWFRFQLMDDQDARATFYGAQCSLCTSLLWSVERRGL
Cutinase activity after time ([2]; Esperase 64 μg/ml, 0 min): 1.73 absorbance change at 410 nm | Cutinase activity after time ([2]; Esperase 64 μg/ml, 5 min): 1.64 absorbance change at 410 nm | Cutinase activity after time ([2]; Esperase 64 μg/ml, 10 min): 1.59 absorbance change at 410 nm | Cutinase activity after time ([2]; Esperase 64 μg/ml, 15 min): 1.51 absorbance change at 410 nm | Cutinase activity after time ([2]; Esperase 64 μg/ml, 840 min): 0.456 absorbance change at 410 nm | Cutinase activity after time ([2]; Maxacal 35 μg/ml, 0 min): 1.68 absorbance change at 410 nm | Cutinase activity after time ([2]; Maxacal 35 μg/ml, 5 min): 1.58 absorbance change at 410 nm | Cutinase activity after time ([2]; Maxacal 35 μg/ml, 10 min): 1.72 absorbance change at 410 nm | Cutinase activity after time ([2]; Maxacal 35 μg/ml, 15 min): 1.66 absorbance change at 410 nm | Cutinase activity after time ([2]; Maxacal 35 μg/ml, 840 min): 0.134 absorbance change at 410 nm | Cutinase activity after time ([2]; Standard, no protease, 0 min, 42 μg/ml cutinase): 1.57 absorbance change at 410 nm | Cutinase activity after time ([2]; Standard, no protease, 5 min): 1.60 absorbance change at 410 nm | Cutinase activity after time ([2]; Standard, no protease, 10 min): 1.47 absorbance change at 410 nm | Cutinase activity after time ([2]; Standard, no protease, 15 min): 1.63 absorbance change at 410 nm | Cutinase activity after time ([2]; Standard, no protease, 840 min): 1.61 absorbance change at 410 nm | Stability in aqueous solution in the presence of a protease ([2]; results from A and B of Example 1, periods of time commonly encountered in cleaning use): stable | Cutinase activity in the aqueous solution after 28 minutes ([3]; Alcalase 34.7 μg/ml): 420.3 units of octanoic acid released | Cutinase activity in the aqueous solution after 28 minutes ([3]; Alcalase/Savinase 17.7/20.0 μg/ml): 428.0 units of octanoic acid released | Cutinase activity in the aqueous solution after 28 minutes ([3]; Esperase/Savinase 15.0/13.0 μg/ml): 411.0 units of octanoic acid released | Cutinase activity in the aqueous solution after 28 minutes ([3]; no protease): 417.8 units of octanoic acid released | Stability of cutinase activity at pH ([4]; neutral and alkaline pHs, 50° C.): sufficiently stable | Half-life at 50° C. ([4]; pH 7, 0.1M sodium phosphate buffer): 30 h | Half-life at 50° C. ([4]; pH 8, 0.1M sodium phosphate buffer): 25 h | Half-life at 50° C. ([4]; pH 9, 0.1M sodium phosphate buffer): 12 h | Half-life at 50° C. ([4]; pH 10, 0.1M sodium phosphate buffer): 0.3 h | Percent Activity ([1]; Triton X-100 0, SDS 0 weight percent (standard assigned 100), pH 8.0, 25° C.): 100% | Percent Activity ([1]; Triton X-100 0, SDS 0.05 weight percent): 30% | Percent Activity ([1]; Triton X-100 0, SDS 0.1 weight percent): 23% | Percent Activity ([1]; Triton X-100 0, SDS 0.2 weight percent): 14% | Percent Activity ([1]; Triton X-100 0, SDS 0.4 weight percent): 6% | Percent Activity ([1]; Triton X-100 0.05, SDS 0.05 weight percent): 132% | Percent Activity ([1]; Triton X-100 0.1, SDS 0.1 weight percent): 130% | Percent Activity ([1]; Triton X-100 0.2, SDS 0 weight percent): 78% | Percent Activity ([1]; Triton X-100 0.2, SDS 0.05 weight percent): 125% | Percent Activity ([1]; Triton X-100 0.2, SDS 0.1 weight percent): 138% | Percent Activity ([1]; Triton X-100 0.2, SDS 0.2 weight percent): 98% | Percent Activity ([1]; Triton X-100 0.4, SDS 0 weight percent): 60% | Percent Activity ([1]; Triton X-100 0.4, SDS 0.4 weight percent): 78% | Stability of cutinase activity in the presence of an oxidant ([5]; hydrogen peroxide): sufficiently stable | Percent Cutinase Activity ([5]; hydrogen peroxide 0 ppm (standard assigned 100%)): 100% | Percent Cutinase Activity ([5]; hydrogen peroxide 100 ppm): 86% | Percent Cutinase Activity ([5]; hydrogen peroxide 200 ppm): 86% | Percent Cutinase Activity ([5]; hydrogen peroxide 500 ppm): 91% | Percent Cutinase Activity ([5]; hydrogen peroxide 1000 ppm): 95% | Sp. activity triolein hydrolysis [6]: 157,045 cnts./10 min./μg enzyme | Triolein hydrolysis ([6]; cutinase 0.25 to 1.5 μg/ml): 9,250 cnts./10 min. | pH at which cutinase activity reaches a maximum ([7]; FIG. 1): 7 | Share of maximum activity maintained ([7]; up to pH 11, FIG. 1): ≥ 80%
